Results published in patent US11352399B2, “Peptide for toll-like receptor (TLR) inhibition and pharmaceutical composition comprising same” (GENESEN CO., LTD., priority 2017, dated 2022).

What was measured:
Type in all cases: cell-based
[1] = target: T1, TLR1/2 (Mus musculus, UniProt Q9EPQ1+Q9QUN7); assay: TNF-α secretion in RAW 264.7 cells with PAM3CSK4
T1 construct: host or cells: RAW 264.7

[2] = target: T2, TLR3 (Mus musculus, UniProt Q99MB1); assay: TNF-α and IFN-β secretion in RAW 264.7 cells with Poly(I:C)
T2 construct: host or cells: RAW 264.7
T2 sequence (Q99MB1 26-905): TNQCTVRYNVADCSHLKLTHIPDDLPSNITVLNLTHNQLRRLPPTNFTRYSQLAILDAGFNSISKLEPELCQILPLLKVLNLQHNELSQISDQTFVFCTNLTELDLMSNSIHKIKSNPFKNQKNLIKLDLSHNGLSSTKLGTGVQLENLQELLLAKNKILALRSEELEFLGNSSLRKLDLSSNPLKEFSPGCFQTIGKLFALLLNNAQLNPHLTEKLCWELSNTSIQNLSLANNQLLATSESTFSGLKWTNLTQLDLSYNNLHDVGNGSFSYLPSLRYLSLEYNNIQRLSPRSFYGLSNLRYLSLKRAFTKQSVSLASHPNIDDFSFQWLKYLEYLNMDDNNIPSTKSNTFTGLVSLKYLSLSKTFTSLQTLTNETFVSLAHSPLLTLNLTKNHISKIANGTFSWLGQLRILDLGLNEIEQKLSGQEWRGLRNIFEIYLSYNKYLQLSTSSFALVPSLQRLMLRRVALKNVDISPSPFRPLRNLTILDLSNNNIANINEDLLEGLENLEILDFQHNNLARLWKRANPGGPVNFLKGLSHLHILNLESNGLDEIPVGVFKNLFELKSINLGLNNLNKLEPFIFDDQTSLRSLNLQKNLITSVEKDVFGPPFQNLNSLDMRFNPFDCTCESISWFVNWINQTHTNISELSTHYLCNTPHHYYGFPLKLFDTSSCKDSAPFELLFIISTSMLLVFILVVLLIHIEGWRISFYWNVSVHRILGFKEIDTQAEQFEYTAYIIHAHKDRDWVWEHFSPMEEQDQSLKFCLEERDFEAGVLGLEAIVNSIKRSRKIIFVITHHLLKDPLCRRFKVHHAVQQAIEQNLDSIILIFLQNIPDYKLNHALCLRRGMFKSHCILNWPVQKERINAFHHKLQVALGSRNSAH

[3] = target: T3, TLR9 (Mus musculus, UniProt Q9EQU3); assay: TNF-α secretion in RAW 264.7 cells with CpG-ODN
T3 construct: host or cells: RAW 264.7
T3 sequence (Q9EQU3 26-1032): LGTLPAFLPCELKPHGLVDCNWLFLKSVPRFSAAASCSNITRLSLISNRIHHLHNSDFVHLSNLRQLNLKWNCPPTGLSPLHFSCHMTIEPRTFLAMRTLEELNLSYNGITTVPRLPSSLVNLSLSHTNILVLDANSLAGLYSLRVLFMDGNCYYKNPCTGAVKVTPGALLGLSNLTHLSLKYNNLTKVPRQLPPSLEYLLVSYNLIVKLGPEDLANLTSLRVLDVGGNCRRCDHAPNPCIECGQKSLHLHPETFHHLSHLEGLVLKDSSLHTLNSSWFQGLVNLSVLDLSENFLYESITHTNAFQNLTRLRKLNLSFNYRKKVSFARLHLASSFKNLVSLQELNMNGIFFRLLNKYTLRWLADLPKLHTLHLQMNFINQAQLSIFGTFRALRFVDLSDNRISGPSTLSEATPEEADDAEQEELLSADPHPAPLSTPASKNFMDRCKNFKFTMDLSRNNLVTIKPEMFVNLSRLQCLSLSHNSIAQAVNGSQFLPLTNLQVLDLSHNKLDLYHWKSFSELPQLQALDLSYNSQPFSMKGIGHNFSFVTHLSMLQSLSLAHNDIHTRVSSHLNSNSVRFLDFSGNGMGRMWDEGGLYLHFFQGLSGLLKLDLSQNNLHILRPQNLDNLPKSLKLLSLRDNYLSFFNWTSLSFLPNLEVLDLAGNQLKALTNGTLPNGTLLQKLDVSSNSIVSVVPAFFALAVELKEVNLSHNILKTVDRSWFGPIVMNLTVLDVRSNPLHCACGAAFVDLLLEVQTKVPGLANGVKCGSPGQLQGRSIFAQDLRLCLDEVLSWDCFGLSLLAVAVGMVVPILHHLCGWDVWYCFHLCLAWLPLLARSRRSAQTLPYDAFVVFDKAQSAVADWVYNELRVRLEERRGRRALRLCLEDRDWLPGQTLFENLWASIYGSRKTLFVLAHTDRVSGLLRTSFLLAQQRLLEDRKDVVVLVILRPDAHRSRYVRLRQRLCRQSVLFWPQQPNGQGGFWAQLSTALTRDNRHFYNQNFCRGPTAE

[4] = target: T4, hTLR4 (human TLR4) (Homo sapiens, UniProt O00206); assay: SEAP activity (NF-κB activity) in HEK-Blue-hTLR4 cells
T4 construct: host or cells: HEK-Blue-hTLR4 (HEK293-derived reporter line)
T4 sequence (O00206 24-839): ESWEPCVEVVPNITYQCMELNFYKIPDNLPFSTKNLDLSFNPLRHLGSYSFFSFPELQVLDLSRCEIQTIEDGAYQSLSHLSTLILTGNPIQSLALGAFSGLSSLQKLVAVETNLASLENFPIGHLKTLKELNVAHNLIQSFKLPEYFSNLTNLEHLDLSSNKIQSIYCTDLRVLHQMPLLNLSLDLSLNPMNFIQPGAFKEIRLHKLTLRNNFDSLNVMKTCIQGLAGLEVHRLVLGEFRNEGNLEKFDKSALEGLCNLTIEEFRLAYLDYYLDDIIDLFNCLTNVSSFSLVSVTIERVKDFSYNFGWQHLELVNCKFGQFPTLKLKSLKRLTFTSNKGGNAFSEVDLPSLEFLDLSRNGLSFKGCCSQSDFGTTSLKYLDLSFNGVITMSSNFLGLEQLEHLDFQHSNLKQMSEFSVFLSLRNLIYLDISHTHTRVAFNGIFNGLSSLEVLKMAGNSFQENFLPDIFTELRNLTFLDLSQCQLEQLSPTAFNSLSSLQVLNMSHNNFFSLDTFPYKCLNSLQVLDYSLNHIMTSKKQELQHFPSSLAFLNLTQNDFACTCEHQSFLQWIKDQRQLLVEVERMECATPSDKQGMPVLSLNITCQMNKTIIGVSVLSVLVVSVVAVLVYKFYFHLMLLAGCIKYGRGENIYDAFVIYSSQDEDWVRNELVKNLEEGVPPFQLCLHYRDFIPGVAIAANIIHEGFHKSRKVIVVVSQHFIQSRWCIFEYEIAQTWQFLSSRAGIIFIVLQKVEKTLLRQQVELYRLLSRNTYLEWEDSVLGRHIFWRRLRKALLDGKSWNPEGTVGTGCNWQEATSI
T4 sequence (Q9Y6Y9 17-160 partner limits assumed): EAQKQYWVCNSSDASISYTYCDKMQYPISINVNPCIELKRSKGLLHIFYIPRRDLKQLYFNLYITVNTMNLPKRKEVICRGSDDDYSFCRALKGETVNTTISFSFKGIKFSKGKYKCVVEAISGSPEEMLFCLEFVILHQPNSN
Experimental: HEK-Blue™-hTLR4 cells were dispensed into 24-well plates (BD Biosciences) to a cell number of 2×10^5 cells/well, and incubation was performed overnight. The next day, the culture was removed and medium replacement was performed. Then, a portion (200 μl) of the culture was transferred to a microcentrifuge tube and heated at 65° C. for 10 minutes using a heating block (FINEPCR. Co., Seoul, Korea). Subsequently, the culture was transferred to 96-well plates (BD Biosciences), and absorbance was measured at 405 nm using the HEK-Blue™ detection kit (InvivoGen) and a microplate reader spectrophotometer (Molecular Devices Inc., Silicon Valley, Calif., USA), to analyze an expression level of SEAP (secreted alkaline phosphatase).
To this end, the inducible secreted embryonic alkaline phosphatase (SEAP) reporter gene was placed under the control of an IL-12 p40 minimal promoter (IL-12 p40 is produced by activation of NF-κB and AP-1 (activator protein 1) after stimulation of TLR4) which contains sites where DNAs of NF-κB and AP-1 bind. Then, HEK-Blue™-hTLR4 cells were treated with varying concentrations of TIP or TIP (TIP W/O CPP), to which CPP is not linked, at 12.5, 25, 50 μM, and then an average value of SEAP activity was calculated to measure TLR4 activity. The results are illustrated in FIGS. 1(a) and 1(b).
The results are illustrated in FIGS. 12(a) and 12(b).

T1 sequence (Q9EPQ1 26-795): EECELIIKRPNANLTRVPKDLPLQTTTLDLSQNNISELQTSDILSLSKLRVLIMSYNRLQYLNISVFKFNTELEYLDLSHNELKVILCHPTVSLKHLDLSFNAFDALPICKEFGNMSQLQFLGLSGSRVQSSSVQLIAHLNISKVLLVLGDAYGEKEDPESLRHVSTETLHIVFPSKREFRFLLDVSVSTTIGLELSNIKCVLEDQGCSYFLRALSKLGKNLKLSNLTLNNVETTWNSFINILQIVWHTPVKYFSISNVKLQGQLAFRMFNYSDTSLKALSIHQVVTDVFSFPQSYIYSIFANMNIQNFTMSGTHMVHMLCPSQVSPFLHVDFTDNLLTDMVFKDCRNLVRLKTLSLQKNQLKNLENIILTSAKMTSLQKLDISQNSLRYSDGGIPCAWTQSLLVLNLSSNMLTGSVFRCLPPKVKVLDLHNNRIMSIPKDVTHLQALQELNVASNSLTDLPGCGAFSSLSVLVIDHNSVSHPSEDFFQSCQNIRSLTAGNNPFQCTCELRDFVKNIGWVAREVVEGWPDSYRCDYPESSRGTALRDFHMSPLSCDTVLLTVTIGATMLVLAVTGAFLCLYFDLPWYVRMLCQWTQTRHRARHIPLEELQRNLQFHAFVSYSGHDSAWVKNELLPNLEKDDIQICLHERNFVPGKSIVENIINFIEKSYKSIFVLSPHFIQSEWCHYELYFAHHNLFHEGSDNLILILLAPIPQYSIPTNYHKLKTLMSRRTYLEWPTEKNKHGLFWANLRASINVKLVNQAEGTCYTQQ
T1 sequence (Q9QUN7 25-784): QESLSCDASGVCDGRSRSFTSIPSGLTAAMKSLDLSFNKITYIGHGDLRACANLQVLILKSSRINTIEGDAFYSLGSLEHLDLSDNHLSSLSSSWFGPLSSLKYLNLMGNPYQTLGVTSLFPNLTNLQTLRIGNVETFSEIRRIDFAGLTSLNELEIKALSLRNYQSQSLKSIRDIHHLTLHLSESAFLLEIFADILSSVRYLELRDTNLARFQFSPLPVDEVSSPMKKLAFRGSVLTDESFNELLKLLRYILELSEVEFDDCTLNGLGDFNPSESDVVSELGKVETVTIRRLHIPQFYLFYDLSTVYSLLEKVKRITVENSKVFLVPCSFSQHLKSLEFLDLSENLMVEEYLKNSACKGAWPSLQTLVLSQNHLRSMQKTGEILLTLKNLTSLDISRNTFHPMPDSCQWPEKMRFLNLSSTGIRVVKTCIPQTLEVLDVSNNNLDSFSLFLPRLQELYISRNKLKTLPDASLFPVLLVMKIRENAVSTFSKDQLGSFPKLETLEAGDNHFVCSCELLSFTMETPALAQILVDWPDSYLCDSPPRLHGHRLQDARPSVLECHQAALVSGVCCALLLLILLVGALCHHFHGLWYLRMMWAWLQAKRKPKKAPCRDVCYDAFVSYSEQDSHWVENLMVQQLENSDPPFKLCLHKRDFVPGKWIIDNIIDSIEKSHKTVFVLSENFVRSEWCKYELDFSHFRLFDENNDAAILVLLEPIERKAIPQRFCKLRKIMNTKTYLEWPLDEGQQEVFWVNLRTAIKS

RQIKIWFQNRRMKWKKSHCRVLLI (TIP1)
secretion level of TNF-α [1]: decreased | secretion level of TNF-α ([2]; Poly(I:C) (TLR3)): decreased | decrease of TNF-α secretion (inhibitory effect on TLR3 signaling) ([2]; Poly(I:C), at 50 μM): 92% | secretion level of IFN-β ([2]; TIP1 together with Poly(I:C), ELISA): decreased | secretion level of TNF-α [3]: decreased | LPS-induced SEAP activity ([4]; TIP 12.5, 25, 50 μM, then LPS, FIG. 1(a)): decreased LPS-induced SEAP activity in a concentration-dependent manner | NF-κB activity (SEAP activity) ([4]; together with LPS, FIG. 12(a)): highest inhibitory effect on NF-κB activity
